Experimental findings from US20210139548A1 (published 2021) are described below.

First the molecules themselves.
T1: human neuropeptide Y2 receptor (human, UniProt P49146 1-381)
T1 construct: whole, on cells; also called hNPY2 receptor; hNPY2-R
T1 sequence (looked up): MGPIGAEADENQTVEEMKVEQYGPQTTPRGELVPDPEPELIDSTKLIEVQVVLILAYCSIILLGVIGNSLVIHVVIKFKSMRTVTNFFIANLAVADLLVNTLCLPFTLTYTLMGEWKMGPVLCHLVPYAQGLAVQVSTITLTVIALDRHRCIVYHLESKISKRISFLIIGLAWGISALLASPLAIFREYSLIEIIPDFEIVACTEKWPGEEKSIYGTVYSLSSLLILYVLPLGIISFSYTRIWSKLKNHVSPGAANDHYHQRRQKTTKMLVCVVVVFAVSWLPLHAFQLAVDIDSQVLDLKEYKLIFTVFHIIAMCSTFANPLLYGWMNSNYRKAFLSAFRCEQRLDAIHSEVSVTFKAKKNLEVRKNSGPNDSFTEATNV

B1: Compound 212 (peptide)
peptide: Isovaleryl-APEK([AEEA-AEEA-γGlu-C18 diacid])PEEDTAPEELQRYYVSLRHYYNWLTRQRY-NH2
SMILES: CC(C)CC(=O)N[C@@H](C)C(=O)N1CCC[C@H]1C(=O)N[C@@H](CCC(=O)O)C(=O)N[C@@H](CCCCNC(=O)COCCOCCNC(=O)COCCOCCNC(=O)CC[C@H](NC(=O)CCCCCCCCCCCCCCCCC(=O)O)C(=O)O)C(=O)N1CCC[C@H]1C(=O)N[C@@H](CCC(=O)O)C(=O)N[C@@H](CCC(=O)O)C(=O)N[C@@H](CC(=O)O)C(=O)N[C@H](C(=O)N[C@@H](C)C(=O)N1CCC[C@H]1C(=O)N[C@@H](CCC(=O)O)C(=O)N[C@@H](CCC(=O)O)C(=O)N[C@@H](CC(C)C)C(=O)N[C@@H](CCC(N)=O)C(=O)N[C@@H](CCCNC(=N)N)C(=O)N[C@@H](Cc1ccc(O)cc1)C(=O)N[C@@H](Cc1ccc(O)cc1)C(=O)N[C@H](C(=O)N[C@@H](CO)C(=O)N[C@@H](CC(C)C)C(=O)N[C@@H](CCCNC(=N)N)C(=O)N[C@@H](Cc1c[nH]cn1)C(=O)N[C@@H](Cc1ccc(O)cc1)C(=O)N[C@@H](Cc1ccc(O)cc1)C(=O)N[C@@H](CC(N)=O)C(=O)N[C@@H](Cc1c[nH]c2ccccc12)C(=O)N[C@@H](CC(C)C)C(=O)N[C@H](C(=O)N[C@@H](CCCNC(=N)N)C(=O)N[C@@H](CCC(N)=O)C(=O)N[C@@H](CCCNC(=N)N)C(=O)N[C@@H](Cc1ccc(O)cc1)C(N)=O)[C@@H](C)O)C(C)C)[C@@H](C)O
B2: Compound 213 (peptide)
peptide: Isovaleryl-APEK([AEEA-AEEA-γGlu-C18 diacid])PEEETSPEELQRYYVSLRHYYNWLTRQRY-NH2
SMILES: CC(C)CC(=O)N[C@@H](C)C(=O)N1CCC[C@H]1C(=O)N[C@@H](CCC(=O)O)C(=O)N[C@@H](CCCCNC(=O)COCCOCCNC(=O)COCCOCCNC(=O)CC[C@H](NC(=O)CCCCCCCCCCCCCCCCC(=O)O)C(=O)O)C(=O)N1CCC[C@H]1C(=O)N[C@@H](CCC(=O)O)C(=O)N[C@@H](CCC(=O)O)C(=O)N[C@@H](CCC(=O)O)C(=O)N[C@H](C(=O)N[C@@H](CO)C(=O)N1CCC[C@H]1C(=O)N[C@@H](CCC(=O)O)C(=O)N[C@@H](CCC(=O)O)C(=O)N[C@@H](CC(C)C)C(=O)N[C@@H](CCC(N)=O)C(=O)N[C@@H](CCCNC(=N)N)C(=O)N[C@@H](Cc1ccc(O)cc1)C(=O)N[C@@H](Cc1ccc(O)cc1)C(=O)N[C@H](C(=O)N[C@@H](CO)C(=O)N[C@@H](CC(C)C)C(=O)N[C@@H](CCCNC(=N)N)C(=O)N[C@@H](Cc1c[nH]cn1)C(=O)N[C@@H](Cc1ccc(O)cc1)C(=O)N[C@@H](Cc1ccc(O)cc1)C(=O)N[C@@H](CC(N)=O)C(=O)N[C@@H](Cc1c[nH]c2ccccc12)C(=O)N[C@@H](CC(C)C)C(=O)N[C@H](C(=O)N[C@@H](CCCNC(=N)N)C(=O)N[C@@H](CCC(N)=O)C(=O)N[C@@H](CCCNC(=N)N)C(=O)N[C@@H](Cc1ccc(O)cc1)C(N)=O)[C@@H](C)O)C(C)C)[C@@H](C)O
B3: Compound 215 (peptide)
peptide: Isovaleryl-APEK([AEEA-AEEA-γGlu-C18 diacid])PEEDASPAELQRYYVELRHYYNWLTRQRY-NH2
SMILES: CC(C)CC(=O)N[C@@H](C)C(=O)N1CCC[C@H]1C(=O)N[C@@H](CCC(=O)O)C(=O)N[C@@H](CCCCNC(=O)COCCOCCNC(=O)COCCOCCNC(=O)CC[C@H](NC(=O)CCCCCCCCCCCCCCCCC(=O)O)C(=O)O)C(=O)N1CCC[C@H]1C(=O)N[C@@H](CCC(=O)O)C(=O)N[C@@H](CCC(=O)O)C(=O)N[C@@H](CC(=O)O)C(=O)N[C@@H](C)C(=O)N[C@@H](CO)C(=O)N1CCC[C@H]1C(=O)N[C@@H](C)C(=O)N[C@@H](CCC(=O)O)C(=O)N[C@@H](CC(C)C)C(=O)N[C@@H](CCC(N)=O)C(=O)N[C@@H](CCCNC(=N)N)C(=O)N[C@@H](Cc1ccc(O)cc1)C(=O)N[C@@H](Cc1ccc(O)cc1)C(=O)N[C@H](C(=O)N[C@@H](CCC(=O)O)C(=O)N[C@@H](CC(C)C)C(=O)N[C@@H](CCCNC(=N)N)C(=O)N[C@@H](Cc1c[nH]cn1)C(=O)N[C@@H](Cc1ccc(O)cc1)C(=O)N[C@@H](Cc1ccc(O)cc1)C(=O)N[C@@H](CC(N)=O)C(=O)N[C@@H](Cc1c[nH]c2ccccc12)C(=O)N[C@@H](CC(C)C)C(=O)N[C@H](C(=O)N[C@@H](CCCNC(=N)N)C(=O)N[C@@H](CCC(N)=O)C(=O)N[C@@H](CCCNC(=N)N)C(=O)N[C@@H](Cc1ccc(O)cc1)C(N)=O)[C@@H](C)O)C(C)C
B4: Compound 218 (peptide)
peptide: Isovaleryl-APEK([AEEA-AEEA-γGlu-C18 diacid])PEEDSSPEELQRYYVALRHYYNWLTRQRY-NH2
SMILES: CC(C)CC(=O)N[C@@H](C)C(=O)N1CCC[C@H]1C(=O)N[C@@H](CCC(=O)O)C(=O)N[C@@H](CCCCNC(=O)COCCOCCNC(=O)COCCOCCNC(=O)CC[C@H](NC(=O)CCCCCCCCCCCCCCCCC(=O)O)C(=O)O)C(=O)N1CCC[C@H]1C(=O)N[C@@H](CCC(=O)O)C(=O)N[C@@H](CCC(=O)O)C(=O)N[C@@H](CC(=O)O)C(=O)N[C@@H](CO)C(=O)N[C@@H](CO)C(=O)N1CCC[C@H]1C(=O)N[C@@H](CCC(=O)O)C(=O)N[C@@H](CCC(=O)O)C(=O)N[C@@H](CC(C)C)C(=O)N[C@@H](CCC(N)=O)C(=O)N[C@@H](CCCNC(=N)N)C(=O)N[C@@H](Cc1ccc(O)cc1)C(=O)N[C@@H](Cc1ccc(O)cc1)C(=O)N[C@H](C(=O)N[C@@H](C)C(=O)N[C@@H](CC(C)C)C(=O)N[C@@H](CCCNC(=N)N)C(=O)N[C@@H](Cc1c[nH]cn1)C(=O)N[C@@H](Cc1ccc(O)cc1)C(=O)N[C@@H](Cc1ccc(O)cc1)C(=O)N[C@@H](CC(N)=O)C(=O)N[C@@H](Cc1c[nH]c2ccccc12)C(=O)N[C@@H](CC(C)C)C(=O)N[C@H](C(=O)N[C@@H](CCCNC(=N)N)C(=O)N[C@@H](CCC(N)=O)C(=O)N[C@@H](CCCNC(=N)N)C(=O)N[C@@H](Cc1ccc(O)cc1)C(N)=O)[C@@H](C)O)C(C)C
B5: Compound 219 (peptide)
peptide: Isovaleryl-APEK([AEEA-AEEA-γGlu-C18 diacid])PEEEAAPEELQRYYVSLRHYYNWLTRQRY-NH2
SMILES: CC(C)CC(=O)N[C@@H](C)C(=O)N1CCC[C@H]1C(=O)N[C@@H](CCC(=O)O)C(=O)N[C@@H](CCCCNC(=O)COCCOCCNC(=O)COCCOCCNC(=O)CC[C@H](NC(=O)CCCCCCCCCCCCCCCCC(=O)O)C(=O)O)C(=O)N1CCC[C@H]1C(=O)N[C@@H](CCC(=O)O)C(=O)N[C@@H](CCC(=O)O)C(=O)N[C@@H](CCC(=O)O)C(=O)N[C@@H](C)C(=O)N[C@@H](C)C(=O)N1CCC[C@H]1C(=O)N[C@@H](CCC(=O)O)C(=O)N[C@@H](CCC(=O)O)C(=O)N[C@@H](CC(C)C)C(=O)N[C@@H](CCC(N)=O)C(=O)N[C@@H](CCCNC(=N)N)C(=O)N[C@@H](Cc1ccc(O)cc1)C(=O)N[C@@H](Cc1ccc(O)cc1)C(=O)N[C@H](C(=O)N[C@@H](CO)C(=O)N[C@@H](CC(C)C)C(=O)N[C@@H](CCCNC(=N)N)C(=O)N[C@@H](Cc1c[nH]cn1)C(=O)N[C@@H](Cc1ccc(O)cc1)C(=O)N[C@@H](Cc1ccc(O)cc1)C(=O)N[C@@H](CC(N)=O)C(=O)N[C@@H](Cc1c[nH]c2ccccc12)C(=O)N[C@@H](CC(C)C)C(=O)N[C@H](C(=O)N[C@@H](CCCNC(=N)N)C(=O)N[C@@H](CCC(N)=O)C(=O)N[C@@H](CCCNC(=N)N)C(=O)N[C@@H](Cc1ccc(O)cc1)C(N)=O)[C@@H](C)O)C(C)C
B6: Compound 216 (peptide)
peptide: Isovaleryl-APAK([AEEA-AEEA-γGlu-C18 diacid])PEEDASPEELEQYYVSLRHYYNWLTRQRY-NH2
SMILES: CC(C)CC(=O)N[C@@H](C)C(=O)N1CCC[C@H]1C(=O)N[C@@H](C)C(=O)N[C@@H](CCCCNC(=O)COCCOCCNC(=O)COCCOCCNC(=O)CC[C@H](NC(=O)CCCCCCCCCCCCCCCCC(=O)O)C(=O)O)C(=O)N1CCC[C@H]1C(=O)N[C@@H](CCC(=O)O)C(=O)N[C@@H](CCC(=O)O)C(=O)N[C@@H](CC(=O)O)C(=O)N[C@@H](C)C(=O)N[C@@H](CO)C(=O)N1CCC[C@H]1C(=O)N[C@@H](CCC(=O)O)C(=O)N[C@@H](CCC(=O)O)C(=O)N[C@@H](CC(C)C)C(=O)N[C@@H](CCC(=O)O)C(=O)N[C@@H](CCC(N)=O)C(=O)N[C@@H](Cc1ccc(O)cc1)C(=O)N[C@@H](Cc1ccc(O)cc1)C(=O)N[C@H](C(=O)N[C@@H](CO)C(=O)N[C@@H](CC(C)C)C(=O)N[C@@H](CCCNC(=N)N)C(=O)N[C@@H](Cc1c[nH]cn1)C(=O)N[C@@H](Cc1ccc(O)cc1)C(=O)N[C@@H](Cc1ccc(O)cc1)C(=O)N[C@@H](CC(N)=O)C(=O)N[C@@H](Cc1c[nH]c2ccccc12)C(=O)N[C@@H](CC(C)C)C(=O)N[C@H](C(=O)N[C@@H](CCCNC(=N)N)C(=O)N[C@@H](CCC(N)=O)C(=O)N[C@@H](CCCNC(=N)N)C(=O)N[C@@H](Cc1ccc(O)cc1)C(N)=O)[C@@H](C)O)C(C)C

*1 amine or outer side, *2 acyl side, *3 side chain or, on linkers, in order; H or OH if unused. Side-chain parts run from the residue outwards. The star is where a group is joined. C18 diacid = O=C(O)CCCCCCCCCCCCCCCCC(=O)*; γGlu = O=C(O)[C@H](CCC(=O)[*:2])N[*:1]; Isovaleryl = CC(C)CC(=O)*; AEEA = NCCOCCOCC(=O)O

This assay has as its target T1, human neuropeptide Y2 receptor. As to the kind of experiment: radioligand competition (125I-PYY(1-36)), hNPY2R membranes. A digest of the protocol:
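Commercial human Y2 receptor membranes (0.5 μg protein/well) were incubated with peptide for 2 h at room temperature in 50 mM HEPES, 5 mM MgCl₂, 1 mM CaCl₂, pH 7.4, with 0.2% ovalbumin. Bound radioligand was separated on PEI-soaked GF/C filters and counted by scintillation, and IC₅₀ came from nonlinear sigmoidal regression.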
Consider B1, for which the Ki is 20.3 nM.
The molecule B2 yielded a Ki of 6.54 nM.
B3: the Ki stood at 0.48 nM.
In turn, B4 yielded a Ki of 1.49 nM.
Molecule B5 had an inhibitory constant (Ki) of 7.6 nM.
B6 showed a Ki of 0.93 nM.
